{"source": "paper PMC9315659", "key": {"WT LysRS(ΔN65) [1]": {"molecular_target": "T1, WT LysRS(ΔN65) (human, UniProt Q15046 66-597)", "T1 sequence (Q15046 66-597, stated change not applied)": "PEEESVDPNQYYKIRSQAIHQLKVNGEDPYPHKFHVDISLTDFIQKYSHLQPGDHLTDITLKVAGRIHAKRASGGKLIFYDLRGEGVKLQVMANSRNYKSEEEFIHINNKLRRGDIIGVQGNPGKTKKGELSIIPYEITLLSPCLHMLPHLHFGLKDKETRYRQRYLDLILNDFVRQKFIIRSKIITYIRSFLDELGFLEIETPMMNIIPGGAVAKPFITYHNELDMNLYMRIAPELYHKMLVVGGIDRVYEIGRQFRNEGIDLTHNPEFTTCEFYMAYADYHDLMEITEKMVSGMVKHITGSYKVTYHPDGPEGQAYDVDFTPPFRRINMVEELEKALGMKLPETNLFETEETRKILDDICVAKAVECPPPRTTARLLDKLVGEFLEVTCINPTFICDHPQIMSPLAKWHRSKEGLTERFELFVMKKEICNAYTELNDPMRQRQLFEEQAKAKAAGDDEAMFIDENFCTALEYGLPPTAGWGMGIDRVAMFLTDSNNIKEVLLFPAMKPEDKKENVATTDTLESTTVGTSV", "assay": "fluorescence anisotropy; 1 mM Mg2+; FA: 20 mM Tris-HCl pH 8, 15 mM NaCl, 35 mM KCl, 1 mM MgCl2, 20 nM RNA (30 nM per supplement), temperature not stated; XL-SHAPE: 20 mM HEPES pH 7.5, 60 mM NaCl", "settings": "protein: recombinant; tags: His; chain copies: 2; label: 3' fluorescein (FTSC); tRNA fold"}, "S207D LysRS(ΔN65) [2]": {"molecular_target": "T2, S207D LysRS(ΔN65) (human, UniProt Q15046 66-597, S207D)", "T2 sequence (Q15046 66-597 S207D)": "as the sequence (Q15046 66-597, stated change not applied) above, with S142D counted along it", "assay": "fluorescence anisotropy; 1 mM Mg2+; FA: 20 mM Tris-HCl pH 8, 15 mM NaCl, 35 mM KCl, 1 mM MgCl2, 20 nM RNA (30 nM per supplement), temperature not stated; XL-SHAPE: 20 mM HEPES pH 7.5, 60 mM NaCl", "settings": "protein: recombinant; tags: His; chain copies: 2; label: 3' fluorescein (FTSC); tRNA fold"}, "WT LysRS(ΔN65) [3]": {"molecular_target": "T1, WT LysRS(ΔN65)", "assay": "fluorescence anisotropy; 1 mM Mg2+", "settings": "protein: recombinant, tags: His, chain copies: 2"}, "S207D LysRS(ΔN65) [4]": {"molecular_target": "T2, S207D LysRS(ΔN65)", "assay": "fluorescence anisotropy; 1 mM Mg2+", "settings": "protein: recombinant, tags: His, chain copies: 2"}, "[5]": {"settings": "label: 3' fluorescein (FTSC) on RNA, 21-nt DNA annealed to folded RNA, 1.5x DNA"}, "[6]": {"settings": "label: 3' fluorescein (FTSC) on RNA, 24-nt DNA annealed, extends into TLE stem, 1.5x DNA"}, "[7]": {"settings": "label: 3' fluorescein (FTSC) on RNA, 29-nt DNA annealed, extends into TLE stem, 1.5x DNA"}, "[8]": {"settings": "label: 3' fluorescein (FTSC) in FA, folded domain with TLE hairpin"}, "[9]": {"settings": "label: 3' fluorescein (FTSC) on RNA, 18-nt DNA annealed to PBS of folded RNA, 1.5x DNA"}}}
{"binder": "tRNALys3 (structured_RNA, unmodified transcript) RNA: GCCCGGAUAGCUCAGUCGGUAGAGCAUCAGACUUUUAAUCUGAGGGUCCAGGGUUCAAGUCCCUGUUCGGGCGCCA", "values": [{"measurement": "Kd", "setting": "WT LysRS(ΔN65) [1]", "result": "407 ± 33", "unit": "nM"}, {"measurement": "Kd", "setting": "S207D LysRS(ΔN65) [2]", "result": "470 ± 190", "unit": "nM"}]}
{"binder": "PBS/TLE105:antiPBS18+3 (mixed) RNA: GGGCUCUGGUAACUAGAGAUCCCUCAGACCCUUUUAGUCAGUGUGGAAAAUCUCUAGCAGUGGCGCCCGAACAGGGACUUGAAAGCGAAAGUAAAGCCAGAGCCC DNA: GTCCCTGTTCGGGCGCCACTG", "values": [{"measurement": "Kd", "setting": "WT LysRS(ΔN65) [3]; [5]", "result": "488 ± 171", "unit": "nM"}, {"measurement": "Kd", "setting": "S207D LysRS(ΔN65) [4]; [5]", "result": "305 ± 75", "unit": "nM"}]}
{"binder": "PBS/TLE105:antiPBS18+6 (mixed) RNA: GGGCUCUGGUAACUAGAGAUCCCUCAGACCCUUUUAGUCAGUGUGGAAAAUCUCUAGCAGUGGCGCCCGAACAGGGACUUGAAAGCGAAAGUAAAGCCAGAGCCC DNA: GTCCCTGTTCGGGCGCCACTGCTA", "values": [{"measurement": "Kd", "setting": "WT LysRS(ΔN65) [3]; [6]", "result": "865 ± 379", "unit": "nM"}, {"measurement": "Kd", "setting": "S207D LysRS(ΔN65) [4]; [6]", "result": "590 ± 182", "unit": "nM"}]}
{"binder": "PBS/TLE105:antiPBS18+11 (mixed) RNA: GGGCUCUGGUAACUAGAGAUCCCUCAGACCCUUUUAGUCAGUGUGGAAAAUCUCUAGCAGUGGCGCCCGAACAGGGACUUGAAAGCGAAAGUAAAGCCAGAGCCC DNA: GTCCCTGTTCGGGCGCCACTGCTAGAGAT", "values": [{"measurement": "Kd", "setting": "WT LysRS(ΔN65) [3]; [7]", "result": "1010 ± 639", "unit": "nM"}, {"measurement": "Kd", "setting": "S207D LysRS(ΔN65) [4]; [7]", "result": "949 ± 148", "unit": "nM"}]}
{"binder": "PBS/TLE105 (structured_RNA) RNA: GGGCUCUGGUAACUAGAGAUCCCUCAGACCCUUUUAGUCAGUGUGGAAAAUCUCUAGCAGUGGCGCCCGAACAGGGACUUGAAAGCGAAAGUAAAGCCAGAGCCC", "values": [{"measurement": "Kd", "setting": "WT LysRS(ΔN65) [3]; [8]", "result": "330 ± 115", "unit": "nM"}, {"measurement": "Kd", "setting": "S207D LysRS(ΔN65) [4]; [8]", "result": "315 ± 130", "unit": "nM"}]}
{"binder": "PBS/TLE105:antiPBS18 (mixed) RNA: GGGCUCUGGUAACUAGAGAUCCCUCAGACCCUUUUAGUCAGUGUGGAAAAUCUCUAGCAGUGGCGCCCGAACAGGGACUUGAAAGCGAAAGUAAAGCCAGAGCCC DNA: GTCCCTGTTCGGGCGCCA", "values": [{"measurement": "Kd", "setting": "WT LysRS(ΔN65) [3]; [9]", "result": "240 ± 95", "unit": "nM"}, {"measurement": "Kd", "setting": "S207D LysRS(ΔN65) [4]; [9]", "result": "417 ± 90", "unit": "nM"}]}
